{
  "source": "patent US8629107B2",
  "about": "“Genes and proteins associated with angiogenesis and uses thereof” (National Jewish Health, priority 2005, dated 2014)",
  "molecules": {"B1": {"name": "MAGP-2: secreted glycoprotein (25 kDa); stably expressed in MB114 cells by bicistronic retroviral transduction, Myc-His tagged (protein)", "chain": "QRGDDVPETFTDDPNLVNDPSTDDTALADITPSTDDLAGDKNATAECRDEKFACTRLYSVHRPVRQCVHQSCFTSLRRMYIINNEICSRLVCKEHEAMKDELCRQMAGLPPRRLRRSNYFRLPPCENMNLQRPDGL", "modifications": "left off: small tags and cut ends", "notes": "secreted glycoprotein (25 kDa); stably expressed in MB114 cells by bicistronic retroviral transduction, Myc-His tagged"}},
  "key": {"[1]": {"system": "MCA102 fibrosarcomas", "assay": "MCA102 fibrosarcomas produced in mice", "assay_type": "in vivo", "conditions": "unpublished observation"}, "[2]": {"system": "MB114 cells", "assay": "cell proliferation, [3H]thymidine incorporation assay", "assay_type": "cell-based, murine", "conditions": "serum-starved MB114 cells stably expressing the transgene vs GFP, 24 h, 37° C.", "method": "(§1) The effect putative angiogenic agents had on MB114 cell activities were determined as follows: (i) cell proliferation using a [^3H]thymidine incorporation assay as described (Albig et al, 2006; Albig and Schiemann, 2004; Albig and Schiemann, 2005); (ii) cell invasion through Matrigel matrices using a modified Boyden-chamber assay as described (Albig et al, 2006; Albig and Schiemann, 2004; Albig and Schiemann, 2005); (iii) p38 MAPK phosphorylation using immunoblot analyses as described (Albig et al, 2006; Albig and Schiemann, 2004; Albig and Schiemann, 2005); (iv) angiogenic sprouting in rat tail collagen matrices as described (Albig et al, 2006; Albig and Schiemann, 2004); and (v) Hes1- and SBE-driven luciferase reporter gene assays as described (Albig et al, 2006; Albig and Schiemann, 2004; Albig and Schiemann, 2005).\nFIG. 1A show results from an experiment in which serum-starved MB114 cells, stably expressing either GFP or various putative angiogenic agents, were stimulated in the absence or presence of either bFGF (50 ng/ml) or EGF (10 ng/ml) for 24 h at 37° C. Differences in MB114 cell DNA synthesis was determined by measuring [^3H]thymidine incorporation into cellular DNA. […] In this experiment, invasion of MB114 cells expressing either GFP or various putative angiogenic agents through synthetic basement membranes was determined over 48 h using a modified Boyden-chamber assay."}, "[3]": {"system": "p38 MAPK", "assay": "p38 MAPK phosphorylation by immunoblot analyses", "assay_type": "cell-based, murine", "conditions": "serum-starved MB114 cells expressing the transgene; bFGF 50 ng/ml or EGF 10 ng/ml, 0-15 min", "method": "as §1\nThe inventors' previous studies have associated stimulation of p38 MAPK activity with angiogenesis of MB114 cells and, conversely, inhibition of p38 MAPK activity with angiostasis of MB114 cells (Albig et al, 2006; Albig and Schiemann, 2004; Albig and Schiemann, 2005). […] The phosphorylation status of p38 MAPK was determined by immunoblotting whole cell lysates with phospho-specific p38 MAPK antibodies (p38-P). Differences in protein loading were monitored by reprobing stripped membranes with anti-p38 MAPK polyclonal antibodies (p38)."}, "[4]": {"target": "T1, Notch1 (Mus musculus, UniProt Q01705)", "T1 construct": "expressed in transfected cells; host or cells: human kidney 293T cells, transient transfection (LT-1 liposomes)", "T1 sequence (Q01705 19-2531)": "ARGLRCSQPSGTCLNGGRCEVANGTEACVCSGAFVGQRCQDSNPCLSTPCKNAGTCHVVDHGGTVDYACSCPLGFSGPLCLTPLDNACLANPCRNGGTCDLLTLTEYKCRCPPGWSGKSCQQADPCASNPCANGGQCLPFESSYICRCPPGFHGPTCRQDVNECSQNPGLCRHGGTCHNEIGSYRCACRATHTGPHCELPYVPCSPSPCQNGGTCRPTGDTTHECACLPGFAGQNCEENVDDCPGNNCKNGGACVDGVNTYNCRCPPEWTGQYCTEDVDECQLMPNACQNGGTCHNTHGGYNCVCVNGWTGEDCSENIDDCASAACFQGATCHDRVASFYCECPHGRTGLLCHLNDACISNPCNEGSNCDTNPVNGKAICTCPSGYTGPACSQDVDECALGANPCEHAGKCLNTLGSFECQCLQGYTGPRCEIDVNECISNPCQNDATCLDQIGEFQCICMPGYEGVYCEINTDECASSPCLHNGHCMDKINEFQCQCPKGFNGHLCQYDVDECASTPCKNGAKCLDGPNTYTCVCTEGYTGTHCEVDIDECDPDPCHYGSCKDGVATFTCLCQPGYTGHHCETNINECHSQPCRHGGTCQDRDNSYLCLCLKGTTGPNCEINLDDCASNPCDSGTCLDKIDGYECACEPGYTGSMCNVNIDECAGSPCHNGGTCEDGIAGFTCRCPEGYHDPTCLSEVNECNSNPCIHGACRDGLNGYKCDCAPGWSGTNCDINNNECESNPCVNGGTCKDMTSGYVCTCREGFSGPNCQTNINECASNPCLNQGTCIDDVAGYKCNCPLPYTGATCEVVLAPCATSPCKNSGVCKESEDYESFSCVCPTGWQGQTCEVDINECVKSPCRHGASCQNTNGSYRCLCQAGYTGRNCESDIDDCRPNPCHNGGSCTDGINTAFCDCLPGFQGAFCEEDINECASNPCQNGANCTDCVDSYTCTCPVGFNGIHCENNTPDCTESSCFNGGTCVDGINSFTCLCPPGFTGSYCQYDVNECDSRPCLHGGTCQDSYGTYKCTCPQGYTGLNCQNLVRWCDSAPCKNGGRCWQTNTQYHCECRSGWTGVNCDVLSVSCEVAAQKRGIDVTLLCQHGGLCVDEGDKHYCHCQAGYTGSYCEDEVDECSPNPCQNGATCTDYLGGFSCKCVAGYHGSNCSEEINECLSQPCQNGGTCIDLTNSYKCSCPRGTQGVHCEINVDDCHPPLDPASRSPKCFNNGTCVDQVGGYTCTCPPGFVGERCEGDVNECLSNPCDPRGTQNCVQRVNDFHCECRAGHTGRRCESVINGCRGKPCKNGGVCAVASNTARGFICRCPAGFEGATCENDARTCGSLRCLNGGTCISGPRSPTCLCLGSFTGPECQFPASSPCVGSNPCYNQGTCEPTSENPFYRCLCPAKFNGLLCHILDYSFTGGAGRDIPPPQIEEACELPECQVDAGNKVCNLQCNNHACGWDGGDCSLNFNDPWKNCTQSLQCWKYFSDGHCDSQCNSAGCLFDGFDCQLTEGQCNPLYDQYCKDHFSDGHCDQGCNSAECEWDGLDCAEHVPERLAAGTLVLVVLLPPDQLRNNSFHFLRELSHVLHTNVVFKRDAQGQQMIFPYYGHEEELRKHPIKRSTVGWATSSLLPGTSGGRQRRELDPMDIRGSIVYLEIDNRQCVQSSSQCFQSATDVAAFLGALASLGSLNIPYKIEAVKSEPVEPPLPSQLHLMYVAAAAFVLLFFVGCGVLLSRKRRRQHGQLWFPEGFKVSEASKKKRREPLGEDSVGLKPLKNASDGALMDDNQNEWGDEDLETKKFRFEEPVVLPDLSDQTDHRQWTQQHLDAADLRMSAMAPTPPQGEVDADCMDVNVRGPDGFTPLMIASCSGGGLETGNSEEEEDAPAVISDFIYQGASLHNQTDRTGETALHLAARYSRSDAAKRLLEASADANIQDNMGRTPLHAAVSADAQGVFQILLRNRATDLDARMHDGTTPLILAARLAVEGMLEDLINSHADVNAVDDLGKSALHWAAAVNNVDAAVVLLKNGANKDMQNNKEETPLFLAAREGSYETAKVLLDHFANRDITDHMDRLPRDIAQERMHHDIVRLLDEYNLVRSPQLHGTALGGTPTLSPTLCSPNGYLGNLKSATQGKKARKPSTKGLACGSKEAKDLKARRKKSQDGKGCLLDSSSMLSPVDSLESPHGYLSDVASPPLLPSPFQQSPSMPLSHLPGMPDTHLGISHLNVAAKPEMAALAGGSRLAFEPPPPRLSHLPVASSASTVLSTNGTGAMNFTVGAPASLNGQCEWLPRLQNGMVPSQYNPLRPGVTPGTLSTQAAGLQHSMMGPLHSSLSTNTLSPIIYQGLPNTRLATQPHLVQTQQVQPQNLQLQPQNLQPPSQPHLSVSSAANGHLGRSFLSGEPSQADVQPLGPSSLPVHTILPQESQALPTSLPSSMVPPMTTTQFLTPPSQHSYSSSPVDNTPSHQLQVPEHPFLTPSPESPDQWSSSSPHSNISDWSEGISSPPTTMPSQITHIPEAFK", "assay": "Notch1 processing assay in human kidney 293T cells", "assay_type": "cell-based", "conditions": "co-expression with Notch1 and Jagged-1 in 293T cells", "method": "To monitor the effects of MAGP-2 on the processing and S3 cleavage of Notch1, human kidney 293T cells were transiently transfected in 6-well plates with LT-1 liposomes containing 0.5 μg/well of Notch1 (pCS2+mN1FL6MT), 0.5 μg/well Jagged-1 (pCS2+Jag1-6MT), or 1.5 μg/well of MAGP-2 (pcDNA3.1-MAGP-2/Myc-His) in all combinations. Forty-eight h post-transfection, the cells were washed with ice-cold PBS, lysed immediately in Buffer H/1% Triton X-100 [500 μl/well; (Schiemann et al, 2002)], and incubated on ice for 30 min. Afterward, insoluble material was removed by microcentrifugation and 100 μl of the resulting clarified extract was fractionated through 6% SDS-PAGE gels. The fractionated proteins were transferred electrophoretically to nitrocellulose and probed with anti-Myc 9E10 monoclonal antibodies (Covance, Princeton, N.J.) to visual Notch1 cleavage species.\nActivation of Notch1 signaling involves three proteolytic processing events, termed S1, S2, and S3, that produce three distinct Notch1 fragments, termed TMIC, NEXT, and NICD, respectively (Mumm et al, 2000). […] The inventors tested this possibility by transiently transfecting human 293T cells with cDNAs encoding Myc-tagged versions of Notch1, Jagged-1, and MAGP-2 in all combinations, and subsequently monitored changes in NICD production and accumulation by immunoblot analyses using anti-Myc monoclonal antibodies. […]"}, "[5]": {"system": "Smad2/3-binding element (SBE)", "assay": "SBE-driven luciferase reporter gene assay in MB114 cells", "assay_type": "cell-based, murine", "conditions": "MAGP-2-expressing vs GFP-expressing MB114 cells; TGF-β1 0-5 ng/ml overnight", "method": "as §1\nTo further investigate the impact of MAGP-2 on Notch1 processing and NICD accumulation, the inventors took advantage of recent findings showing that the ability of TGF-β to induce Hes1 promoter activity requires Smad3 to interact physically with NICD (Blokzijl et al, 2003), a reaction that is dispensable for canonical Smad3-mediated signaling stimulated by TGF-β (Blokzijl et al, 2003). […]"}},
  "data": [
    {"molecule": "B1", "values": [
      {"measurement": "growth of MCA102 fibrosarcomas produced in mice", "setting": "[1]", "value": "significantly increase"},
      {"measurement": "vascularization of MCA102 fibrosarcomas produced in mice", "setting": "[1]", "value": "significantly increase"},
      {"measurement": "proliferative response of MB114 cells to EGF ([3H]thymidine incorporation into cellular DNA)", "setting": "[2]; EGF 10 ng/ml", "value": "significantly enhanced"},
      {"measurement": "proliferative response of MB114 cells to bFGF ([3H]thymidine incorporation into cellular DNA)", "setting": "[2]; bFGF 50 ng/ml", "value": "significantly enhanced"},
      {"measurement": "p38 MAPK phosphorylation", "setting": "[3]", "value": "significantly enhanced"},
      {"measurement": "ability of Jagged-1 to induce Notch1 cleavage and NICD production", "setting": "[4]", "value": "reduced significantly"},
      {"measurement": "TGF-β stimulation of SBE-luciferase activity", "setting": "[5]", "value": "no effect"}
    ]}
  ]
}
